Key:
HLA-A*02:06 = assay: IEDB peptide-MHC binding, cellular MHC/competitive/fluorescence; ≥ and ≤ were set here for values at or beyond the usual limits of such assays
HLA-A*02:03 = assay: as above
HLA-A*68:02 [1] = assay: as above; conditions: source organism: Vaccinia virus WR
HLA-A*02:02 = assay: as above
HLA-A*02:01 [2] = assay: IEDB peptide-MHC binding, purified MHC/competitive/radioactivity; ≥ and ≤ were set here for values at or beyond the usual limits of such assays; conditions: source organism: Vaccinia virus WR
HLA-A*02:01 [3] = assay: IEDB peptide-MHC binding, cellular MHC/competitive/fluorescence; ≥ and ≤ were set here for values at or beyond the usual limits of such assays
HLA-A*68:02 [4] = assay: IEDB peptide-MHC binding, purified MHC/competitive/radioactivity; ≥ and ≤ were set here for values at or beyond the usual limits of such assays
[5] = source organism: Vaccinia virus WR
[6] = source organism: Mammarenavirus guanaritoense
[7] = source organism: Influenza A virus
[8] = source organism: Mammarenavirus choriomeningitidis

| Sequence | IC50 (HLA-A*02:06; [5]) [µM] | IC50 (HLA-A*02:03; [5]) [µM] | IC50 (HLA-A*02:02; [5]) [µM] | IC50 (HLA-A*02:01 [3]; [5]) [µM] | IC50 (HLA-A*68:02 [4]; [5]) [µM] | other results |
| --- | --- | --- | --- | --- | --- | --- |
| PLTLLIKTL | 8.1 | 6.15 | 5.27 |  |  | IC50 (HLA-A*68:02 [1]): 6.22 µM; IC50 (HLA-A*02:01 [2]): 4.78 µM |
| LTHGADPNA | 29.4 | 10.5 | 19.4 | ≥ 70 | 1.37 |  |
| TVKNVDIIDL | 12.4 | 8.31 | 31.3 | 63.3 | 0.834 |  |
| SILNNPVDT | 14.2 | 30.6 | 47.1 |  |  | IC50 (HLA-A*68:02 [1]): 46.8 µM; IC50 (HLA-A*02:01 [2]): 4.63 µM |
| LIYYQNEVT | 8.51 | 5.21 | 14 | 27.9 | 1.08 |  |
| DTSPTKRCRL | 44.6 | 37.1 | 12.2 | ≥ 70 | 1.99 |  |
| DTDIVNNFI | 15.7 | 19.4 | 9.32 | 26.2 | 0.628 |  |
| ETNIGCAVNT | ≥ 70 | 37 | ≥ 70 | 58.4 | 0.022 |  |
| TAEQLSKYV | 23.9 | 8.9 | 5.22 | 53.2 | 2.17 |  |
| IAIFNNRNL | 13.5 | 10.5 | 9.23 | 38.5 | 0.262 |  |
| CTEETKRNI | ≥ 70 | ≥ 70 | ≥ 70 | ≥ 70 | 3.92 |  |
| QQNNSFIIST | 5.71 | 5.04 | 7 |  |  | IC50 (HLA-A*68:02 [1]): 8.51 µM; IC50 (HLA-A*02:01 [2]): 1.23 µM |
| DVNSVQFSI | 16.9 | 16.2 | 10.4 | 11.5 | 0.026 |  |
| YCLDFLFDV |  |  |  |  |  | IC50 (HLA-A*02:06; [6]): ≥ 70 µM; IC50 (HLA-A*02:03; [6]): ≥ 70 µM; IC50 (HLA-A*02:02; [6]): 17.3 µM; IC50 (HLA-A*02:01 [3]; [6]): 40.7 µM; IC50 (HLA-A*68:02 [4]; [6]): 0.024 µM |
| FTELENKKV | 6.84 | 8.08 | 19.6 | ≥ 70 | 3.98 |  |
| LLDEPLSPDT | 7.84 | 10.1 | 8.51 |  |  | IC50 (HLA-A*68:02 [1]): ≥ 70 µM; IC50 (HLA-A*02:01 [2]): 3.6 µM |
| DTEFINKFL | ≥ 70 | 42.7 | 7.42 | ≥ 70 | 0.117 |  |
| DVEKRILNTI | 10.8 | 12.6 | 21 | 55.1 | 4.4 |  |
| ELPVKTDIV | 11.5 | 8.06 | 23 | 11.1 | 3.59 |  |
| RASTTENAA | 12.1 | 66.7 | 26.7 | ≥ 70 | 0.314 |  |
| EIVKNIREGT | 60.7 | 8.53 | 28.5 | 11.8 | 0.431 |  |
| AVYFKAKWLT | 8.71 | 8.93 | 27.2 | 8.89 | 0.605 |  |
| ETKRNIARHL | ≥ 70 | 12.4 | 50 | ≥ 70 | 0.721 |  |
| DMLLNVQTL | 13.4 | 5.07 | 7.4 |  |  | IC50 (HLA-A*68:02 [1]): 5.05 µM; IC50 (HLA-A*02:01 [2]): 3.15 µM |
| EAFETQSGA | ≥ 50 | ≥ 70 | ≥ 70 | ≥ 70 | 0.104 |  |
| IAVFDSKLI | 11.9 | 11.9 | 7.85 |  |  | IC50 (HLA-A*68:02 [1]): 6.79 µM; IC50 (HLA-A*02:01 [2]): 3.85 µM |
| WILWISFAIS |  |  |  |  |  | IC50 (HLA-A*02:06; [7]): 27.2 µM; IC50 (HLA-A*02:03; [7]): 9.09 µM; IC50 (HLA-A*02:02; [7]): 18.7 µM; IC50 (HLA-A*02:01 [3]; [7]): 21.2 µM; IC50 (HLA-A*68:02 [4]; [7]): 2.51 µM |

| Sequence | IC50 (HLA-A*02:06; [5]) [µM] | IC50 (HLA-A*02:03; [5]) [µM] | IC50 (HLA-A*02:02; [5]) [µM] | IC50 (HLA-A*02:01 [3]; [5]) [µM] | IC50 (HLA-A*68:02 [4]; [5]) [µM] | other results |
| --- | --- | --- | --- | --- | --- | --- |
| DVSVSVGTGI | 22.2 | 5.83 | 17.9 | ≥ 70 | 0.424 |  |
| NACDKHNKT | 18.6 | 9.25 | 17.9 | 22.5 | 0.925 |  |
| TVDFTDCRTI | 10.6 | 10.4 | 31.8 | 29.5 | 0.348 |  |
| NVQSLIKFI | 10.5 | 6.02 | 12.9 | 17.1 | 0.703 |  |
| TAIRAGYSI | 7.69 | 9.2 | 14.5 | 26.6 | 0.125 |  |
| TAATKRYPGV | 5.57 | 10.5 | 25.5 | 43.1 | 0.96 |  |
| ETAIRAGYSI | 17.8 | 29.3 | 25.8 | 5.99 | 0.134 |  |
| YTEAAAATCA | 7.16 | 16.1 | 36.5 | 36.5 | 0.159 |  |
| VVIVENDNVI | 10.8 | 10.2 | 14.7 |  |  | IC50 (HLA-A*68:02 [1]): 22.5 µM; IC50 (HLA-A*02:01 [2]): 2.83 µM |
| TINALVYFST | 62.7 | 7.34 | 14.1 | 5.16 | 0.391 |  |
| CVDIFTEGKI | 20.9 | 17.5 | ≥ 70 | 43.2 | 1.31 |  |
| VAEHRFENM | 48.1 | 7.16 | 7.13 | ≥ 70 | 4.42 |  |
| ETFPNVHEHI | ≥ 70 | 6.62 | 8.02 | 23.9 | 0.00045 |  |
| IMECSRMLDT | ≥ 70 | 7.2 | 5.24 |  |  | IC50 (HLA-A*68:02 [1]): ≥ 70 µM; IC50 (HLA-A*02:01 [2]): 3.1 µM |
| EALYYVHSL | 14.8 | 5.77 | 14.2 | 17.6 | 0.347 |  |
| DVIKSISSI | 15 | 7.52 | 63.8 | 32 | 0.504 |  |
| HNASDFYGL |  |  |  |  |  | IC50 (HLA-A*02:06; [8]): 21.8 µM; IC50 (HLA-A*02:03; [8]): ≥ 70 µM; IC50 (HLA-A*02:02; [8]): 6.51 µM; IC50 (HLA-A*02:01 [3]; [8]): 15.5 µM; IC50 (HLA-A*68:02 [4]; [8]): 0.147 µM |
| GLESIEQNLT | ≥ 70 | 61.3 | 7.02 | 34.4 | 1.44 |  |
| TVQIIKLL |  |  |  |  |  | IC50 (HLA-A*02:06; [7]): 51.8 µM; IC50 (HLA-A*02:03; [7]): ≥ 70 µM; IC50 (HLA-A*02:02; [7]): 43.8 µM; IC50 (HLA-A*02:01 [3]; [7]): 47.2 µM; IC50 (HLA-A*68:02 [4]; [7]): 1.38 µM |
| NIREGTHVLL | 34.6 | 5.51 | 8.88 | 13.4 | 2.53 |  |
| DAIKSNNHLT | ≥ 70 | 17.9 | 27.4 | ≥ 70 | 0.768 |  |
| SARALKAYFT | 25.7 | 7.81 | 21.6 | 58.4 | 4.15 |  |
| NTLIQYRQQL | 20.9 | 10.1 | 6.37 | ≥ 70 | 0.876 |  |
| MAFILGIII | 32.5 | 9.76 | 9.54 | 5.87 | 4.93 |  |
| QTLISLNSM | 7.5 | 39.3 | 19.4 |  |  | IC50 (HLA-A*68:02 [1]): 19.4 µM; IC50 (HLA-A*02:01 [2]): 4.82 µM |
| DTIESAKTKI | ≥ 70 | 50.5 | 47.9 | 58.9 | 0.57 |  |

— the Immune Epitope Database (IEDB)
